For experiment [1], the target named is T1, recombinant human VISTA (His-tagged) (human, UniProt Q9H7M9 33-194).
T1 construct: bought soluble protein (Sino Biological); also called hVISTA; human VISTA polypeptide
Kind of experiment: ELISA, plate coated with human VISTA.

Experiment [2] concerns the target T1, recombinant human VISTA (His-tagged). Kind of experiment: antigen-binding ELISA; reference standard run with the day 0 samples; reference standard, run with the Day 0 samples. Background: In an ELISA, binding on a coated surface is turned into a signal by an enzyme label.
The target is the same in experiment [3]. Kind of experiment: antigen-binding ELISA; HMBD-002 in F10, day 10 at 40°C.
For experiment [4] the target is unchanged. Description: antigen-binding ELISA; HMBD-002 10 mg/mL in F10, day 0.
For experiment [5] the target is unchanged. Description: antigen-binding ELISA; HMBD-002 in F5, day 20 at 40°C.
Experiment [6] has the same target. Description: antigen-binding ELISA; HMBD-002 10 mg/mL in F8, day 0.
Experiment [7] has the same target. Kind of experiment: antigen-binding ELISA; HMBD-002 in F1, day 20 at 40°C.
The target is the same in experiment [8]. Description: antigen-binding ELISA; HMBD-002 in F3, day 10 at 40°C.
The target is the same in experiment [9]. Description: ELISA on coated human VISTA, antibody diluted in buffer of pH 7.5.
Description: (§1) 384-well plates were coated with 1 μg/ml of target antigen diluted in PBS for 16 hrs at 4° C. […] After washing, plates were developed with colorimetric detection substrate 3,3′,5,5′-tetramethylbenzidine (Turbo-TMB; Pierce) for 10 min.
For experiment [10] the target is unchanged. Description: antigen-binding ELISA; HMBD-002 in F8, day 10 at 40°C.
Experiment [11] has as its target T2, human B7H4 (human, UniProt Q7Z7D3 25-258, limits assumed).
T2 construct: also called VTCN1
T2 sequence (looked up): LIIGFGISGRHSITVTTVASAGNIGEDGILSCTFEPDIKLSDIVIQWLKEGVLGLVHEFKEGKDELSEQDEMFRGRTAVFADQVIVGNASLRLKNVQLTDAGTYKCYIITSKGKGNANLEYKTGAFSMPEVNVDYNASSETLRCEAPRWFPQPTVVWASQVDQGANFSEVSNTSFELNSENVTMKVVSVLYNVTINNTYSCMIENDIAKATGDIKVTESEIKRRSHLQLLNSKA
Kind of experiment: ELISA, plate coated with human B7H4, antibody titrated.
Description: as §1

For experiment [12], the target named is T1, recombinant human VISTA (His-tagged). Kind of experiment: antigen-binding ELISA; HMBD-002 in F2, day 10 at 40°C.
Experiment [13] deals with T3, recombinant rat VISTA (His-tagged) (rat, UniProt A0ABK0L5H3 33-192).
T3 sequence: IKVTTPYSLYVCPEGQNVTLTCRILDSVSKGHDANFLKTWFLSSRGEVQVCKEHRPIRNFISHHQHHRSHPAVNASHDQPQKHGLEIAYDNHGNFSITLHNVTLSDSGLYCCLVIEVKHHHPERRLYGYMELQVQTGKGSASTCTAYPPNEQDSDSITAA
Kind of experiment: ELISA, VISTA-HIS protein coated; ELISA, rat VISTA-HIS.
Description: as §1

The target in experiment [14] is T1, recombinant human VISTA (His-tagged). Description: antigen-binding ELISA; HMBD-002 10 mg/mL in F1, day 0.
Experiment [15] addresses T4, human FcγRIII (CD16a) (human, UniProt P08637 17-208).
T4 construct: also called human CD16a
Kind of experiment: ELISA, plate coated with human CD16a (FcγRIII), detection with HRP anti-human Fc antibody.
Description: 96 well plates were coated with either 1 μg/well of human C1q protein or 0.5 μg/well of human CD16a in PBS at 4° C. Post overnight incubation, plates were washed thrice and blocked for 1 hr with blocking buffer at room temperature. […] Colorimetric reactions were developed using standard protocol as described for ELISA above.

Experiment [16] has as its target T2, human B7H4. Kind of experiment: ELISA, plate coated with the antigen.
Experiment [17] concerns the target human PD-1 (human, UniProt Q15116 25-167). Kind of experiment: ELISA, plate coated with the antigen.
Experiment [18] addresses T5, human CD47 (human, UniProt Q08722 19-139).
T5 construct: also called hCD47
Description: BLI (Octet), His-tagged hCD47 on anti-Penta-HIS biosensor, antibody 1500-46.9 nM. (BLI is a label-free optical method that tracks binding on a fibre tip over time.)
Description: Finally, the biosensors were incubated for 120 sec in PBS pH 7.2 to obtain the dissociation curves. Kinetic and affinity constants were calculated by global fitting of the association and dissociation data to a 1:1 binding model.

Experiment [19] has as its target T6, human B7H3 (human, UniProt Q5ZPR3 29-461, limits assumed).
T6 construct: also called CD276
T6 sequence (looked up): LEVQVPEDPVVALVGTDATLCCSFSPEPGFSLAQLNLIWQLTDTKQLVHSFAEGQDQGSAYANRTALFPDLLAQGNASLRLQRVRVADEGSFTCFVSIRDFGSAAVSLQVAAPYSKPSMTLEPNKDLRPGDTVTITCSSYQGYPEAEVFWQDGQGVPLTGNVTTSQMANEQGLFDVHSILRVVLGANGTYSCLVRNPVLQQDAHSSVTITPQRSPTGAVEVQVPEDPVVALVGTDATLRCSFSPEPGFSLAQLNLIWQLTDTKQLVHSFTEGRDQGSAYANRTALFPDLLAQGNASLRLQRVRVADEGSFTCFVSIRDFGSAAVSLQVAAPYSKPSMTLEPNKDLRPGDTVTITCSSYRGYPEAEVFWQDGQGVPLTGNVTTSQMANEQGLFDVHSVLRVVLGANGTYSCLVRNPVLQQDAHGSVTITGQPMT
Description: ELISA, target protein coated, A450 against log M of antibody.

In experiment [20] the target is human CTLA4 (human, UniProt P16410 36-162). The experiment is described as above.
For experiment [21], the target named is T1, recombinant human VISTA (His-tagged). The experiment is described as above.

human CTLA4, sequence (P16410 36-162 limits assumed): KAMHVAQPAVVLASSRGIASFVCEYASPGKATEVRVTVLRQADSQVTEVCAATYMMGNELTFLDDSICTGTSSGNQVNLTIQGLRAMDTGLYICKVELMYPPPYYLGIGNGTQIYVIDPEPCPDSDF
human PD-1, sequence (Q15116 25-167 limits assumed): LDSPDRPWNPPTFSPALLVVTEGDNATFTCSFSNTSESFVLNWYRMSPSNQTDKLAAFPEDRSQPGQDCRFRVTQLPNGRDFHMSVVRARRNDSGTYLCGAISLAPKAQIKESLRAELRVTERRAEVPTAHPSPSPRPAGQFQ
T5 sequence (Q08722 19-139 limits assumed): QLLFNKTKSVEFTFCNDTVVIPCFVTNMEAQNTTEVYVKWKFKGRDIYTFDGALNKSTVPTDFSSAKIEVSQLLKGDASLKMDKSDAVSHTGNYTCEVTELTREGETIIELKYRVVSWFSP
T4 sequence (P08637 17-208 limits assumed): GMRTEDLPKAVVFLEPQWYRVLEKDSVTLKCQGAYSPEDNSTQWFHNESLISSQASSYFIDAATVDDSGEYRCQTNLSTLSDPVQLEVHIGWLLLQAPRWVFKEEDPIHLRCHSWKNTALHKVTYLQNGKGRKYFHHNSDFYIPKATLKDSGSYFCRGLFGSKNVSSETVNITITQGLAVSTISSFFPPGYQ

B1: anti-VISTA clone V4-C24 IgG1 (antibody, V domains shown)
VH: QVQLQESGPGLVKPSDTLSLTCTVSGYSITSDYTWNWIRQTPGKGLEWIGHITYSGSVSYNPSLRSRVTISRDTSKNQFSLKLSSVTAADTATYSCARALYYPWYFDVWGTGTTVTVSS
VL: EIVLTQSPATLSLSPGERATLSCRASSSVGYIHWYQQKPGQAPRPLIYTTSYRATGIPARFSGSGSGTDNTLTISSLEPEDSAVYYCQQWSSYPPITFGGGTKLEVKR
Take B1: in experiment [1], the EC50 (read off the curve) (commonly the concentration at which the effect is half-maximal) is ~0.02 nM.

B2: V4-C26 hIgG4 (antibody)
heavy: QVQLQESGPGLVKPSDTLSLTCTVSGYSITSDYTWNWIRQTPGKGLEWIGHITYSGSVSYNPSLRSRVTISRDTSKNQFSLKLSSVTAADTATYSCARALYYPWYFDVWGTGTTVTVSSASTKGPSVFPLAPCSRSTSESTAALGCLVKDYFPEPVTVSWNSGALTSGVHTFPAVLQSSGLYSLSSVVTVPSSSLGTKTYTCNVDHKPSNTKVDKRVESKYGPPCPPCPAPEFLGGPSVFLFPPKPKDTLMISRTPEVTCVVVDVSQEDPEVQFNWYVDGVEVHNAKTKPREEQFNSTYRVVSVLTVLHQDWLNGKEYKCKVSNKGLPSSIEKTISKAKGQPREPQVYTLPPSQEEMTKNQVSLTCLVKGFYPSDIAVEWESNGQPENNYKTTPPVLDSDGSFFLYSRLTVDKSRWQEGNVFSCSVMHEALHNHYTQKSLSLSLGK
light: EIVLTQSPATLSLSPGERATLSCRASSSVGYIHWYQQKPGQAPRPIIYTTSNRATGIPARFSGSGSGTDNTLTISSLEPEDSAVYYCQQWSSYPPITFGGGTKLEVKRTVAAPSVFIFPPSDEQLKSGTASVVCLLNNFYPREAKVQWKVDNALQSGNSQESVTEQDSKDSTYSLSSTLTLSKADYEKHKVYACEVTHQGLSSPVTKSFNRGEC
notes: human IgG4 (S228P)/kappa format; also called HMBD-002; HMBD-002-V4C26
B2: the EC50 (as a rule, the concentration at which the effect is half-maximal) is 0.0307 nM in experiment [2]; 0.0281 nM in experiment [3]; 0.0321 nM in experiment [4]; 0.0239 nM in experiment [5]; 0.0395 nM in experiment [6]; 0.0172 nM in [7]. Further, the EC50 in experiment [8] amounted to 0.0348 nM; in experiment [9], 0.0287 nM; in [10], 0.028 nM; in [12], 0.0322 nM; in experiment [13], 0.00669 nM; in experiment [14] it was 0.04 nM. The binding result in experiment [11] is listed as “no binding (tested: about 3e-8 M)”; in [15] it was “no binding (tested: about 2e-7 M)”.

B3: anti-VISTA clone 4M2-C12 IgG1 (antibody)
heavy: not shown
light: DIVITQTPAILSTSPGEKVTMTCRASSSVGYIHWYQQKPGSSPKPWIYATSNLASGVPARFSGSGSGTSNSLTITRVEAEDAATYYCQQWSSYPPITFGGGTKLEVKRTVAAPSVFIFPPSDEQLKSGTASVVCLLNNFYPREAKVQWKVDNALQSGNSQESVTEQDSKDSTYSLSSTLTLSKADYEKHKVYACEVTHQGLSSPVTKSFNRGEC
notes: mouse variable regions on human IgG1/kappa constant regions; also called V4; V4pr
B3: the binding result is “no binding (tested: log -7.5 M)” in [16]; “no binding (tested: log -7.5 M)” in experiment [17]; “no binding (tested: 1500 nM)” in experiment [18]; “no binding (tested: about 10^-7.5 M (log M axis))” in experiment [19]; “no binding (tested: about 10^-7.5 M (log M axis))” in experiment [20]. In addition, in experiment [21], the “EC50 (read off the curve)” value was ~0.01 nM.

Values taken from patent US20250313631A1 (HUMMINGBIRD BIOSCIENCE PTE, published 2025).
